Test results as given in the nanobody polyreactivity screen of Harvey et al. (2022).

Test: yeast display, Sf9 membrane polyspecificity reagent, FACS + sequencing; frameworks hold sequencing errors
How it was run: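 Galactose-induced (36–48 hours) yeast carrying a synthetic nanobody display library were exposed to 10% biotinylated, detergent-solubilized Sf9 membrane reagent at 4 °C for 1 hour. FACS followed streptavidin microbead enrichment, using low and high (top ~1%) gates for expression (anti-HA) and reagent binding (streptavidin). Colony PCR, MiSeq 2 × 250 sequencing and CDR-length filtering followed. Labels for polyreactivity reflect the gate of origin.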

| Sequence | polyreactivity (PSR sort gate) |
| --- | --- |
| QVQLVESGGGLVQAGGSLRLSCAASGSIFTSYAMVWYRQAPGKERELVAAITSGGSTYYAHSVKGRFTISRDNAKKTVYLLMNSLKPEDTAVYYCAALQVRTSKLHMGYWGQGTQVTVSS | low polyreactivity |
| QVQLVESGGGLVQAGGSLRLSCAASGSIFTTYAMGWSRQAPGKERELVAAITTSGGRTYYADSVKGRFTISRDNAKNTVYLQMNSLKPDDTAVYYCNAVRGGRYGLDYWGQGTQVTVSS | high polyreactivity |
| QVQLVESGGGLVQAGGSLRLSCAASGSIFTVNAMGWYIQAPGIERELVAAIDGSSGSTNYADSVKGRFTISRDIAKNTVYLQMNSLKPEDTAVYYCAADWSYEYGYWGQGTQVTVSS | low polyreactivity |
| QVQLVESGGGLVQAGGSLRLSCAASGSIFTVNAMGWYRQAPGKEMEFVAAITGGGTSTYYADSVKGRFTISRDNAKNTVYLQMNSLTPEVTAVYYCAATTYHYSPTYGYWGQGTQVTVSS | low polyreactivity |
| QVQLVESGGGLVQAGGSLRLSCAASGSIFTVNAMGWYRQAPGKERELVAAISDSGGSTYYADSVKGRFTISRDNAKNTVYLQMISLKPEDTAVYYCAVEIYYFVYGISYDYWGQGTQVTVSS | high polyreactivity |
| QVQLVESGGGLVQAGGSLRLSCAASGSIFTVYAMGWYRQAPGKERELVAAINWSDGDTYYADSVKGRFTISRDNAKNTVYLQMNSLKPEDTAVYYCAAEGIYLILWYGYVEYDYWGQGTQVTVSS | low polyreactivity |
| QVQLVESGGGLVQAGGSLRLSCAASGSIFTVYAMGWYRQAPGKESELVASIRFSSGRTYYADSVKGRFTISRDNAKNTVYLQMNSLKQEDTAVYYCASETVSWYRYYYWGQGTQVTVSS | high polyreactivity |
| QVQLVESGGGLVQAGGSLRLSCAASGSIFTVYDMGWYRQAPGKERELVAAIDSSGGSTYYADSVKGRFTISRDNAKNTVYLQMNSLKPEDTAVYYCAADGDTTSPTYYIFWSGEFDYWGQGTQVTVSS | low polyreactivity |
| QVQLVESGGGLVQAGGSLRLSCAASGSIFTYNAMGWYRQAPGKERELVAAISWSGGSRYYADSVKGRFTISRDNAKNTVYLQMNSLKPVDTAVYYCAAALQYRLYFYPKYDYWGQGTQVTVSS | high polyreactivity |
| QVQLVESGGGLVQAGGSLRLSCAASGSIFTYNTMGWYRQAPGKERELVATISWSGGRTYYADSVKGRFTISRDNAKNTVYLQMNSLKPEDTAVYYCAAGYYYGYPPRDYWGQGSQVTVSS | high polyreactivity |
| QVQLVESGGGLVQAGGSLRLSCAASGSIFTYYAMGWYRPAPGKERELVAAISSDGSTTYADSVKGRFTISRDNAKNTVYLQMNSLKPEDTAVYYCAASQFYFYYSPDGYDFWGQGTQVTVSS | low polyreactivity |
| QVQLVESGGGLVQAGGSLRLSCAASGSIFTYYAMGWYRQAPGKEMELVAAISWSGGSTYYADSVKGRFTISRDNAKNTVYLQLNSLKPEDTAVYYCAKRYRKGRAYPGYEYWGQGTQVTVSS | low polyreactivity |
| QVQLVESGGGLVQAGGSLRLSCAASGSIFTYYAMGWYRQAPGKERELVAAISASGGSTYYADSVKGRFTISRDNAKNTVYLQMNSLKPEDTAVYYCAADYRRSGGGNLPYDNDYWGQVTQVTVSS | high polyreactivity |
| QVQLVESGGGLVQAGGSLRLSCAASGSIFTYYAMGWYRQAPGKERELVAAISRRGGSTYYAVSVKGRFTISRDNAKNTVYLQMNSLKPEDTAVYYCNKVAYPRYYTGVNEFDYWGQGTQVTVSS | high polyreactivity |
| QVQLVESGGGLVQAGGSLRLSCAASGSIFVANAMGWYRQAPGKERELVAAISASGVTTYYADSVKGRFTISRDNAKNTVYLQMNSLKPEDTAVYYCNADYGSDDDVVRYDYWGQGTQVTVSS | low polyreactivity |
| QVQLVESGGGLVQAGGSLRLSCAASGSIFVANAMGWYRQAPGKERELVAAISVRGGRTYYADSVKGRFTISRDNAKNTVYLQMNSLKPEDTAVYYCARVLRSDVADYDYWGQGTQVTVSS | high polyreactivity |
| QVQLVESGGGLVQAGGSLRLSCAASGSIFVDYAMGWSRQAPGKERELVAAITSGGRTNYADSVKGRFTISRDNAKNTVYLQMNSLKPEDTAVYYCNKTRYTNYYTTTFDYWGQGTQVTVSS | low polyreactivity |
